Experimental data: patent publication US20230047413A1 (Janssen / Centocor, published 2023)
Residue numbers refer to the chain shown, from its start. Names and notes keep the numbering of the source. Values joined by “and” are separate entries in the source; they are usually repeats but may differ in a detail not shown here. Identical values can stand only once.

B1: B296 (antibody, human IgG1, kappa, V domains shown)
VH: QVQLVESGGGVVQPGRSLRLSCAASGFTFSSYAMSWVRQAPGKGLEWVASISKGGNTYYADSVKGRFTISRDNSKNTLYLQMNSLRAEDTAVYYCARGWGDYGWFAYWGQVTLVTVSS
VL: DIQMTQSPSSLSASVGDRVTITCKASQDINRYLNWFQQKPGKAPKSLIYRANRLLDGVPSRFSGSGSGTDFTLTISSLQPEDFATYYCLQYDEFPLTFGQGTKLEIKR
notes: Humanized PT3, human IgG1/kappa; also called VH92/VL77; HFA-PT3
B2: B333 (antibody, human IgG1, kappa, V domains shown)
VH: B1 VH
VL: B1 VL with Y32W
notes: also called PT1B333
B3: B809 (antibody, human IgG1, kappa, V domains shown)
VH: B1 VH with S30T, S52T, D101I
VL: B1 VL
notes: also called PT1B809
B4: B234 (antibody, human IgG1, V domains shown)
VH: EVKLVESGGDLVKPGGSLKLSCAASGFTFSSYAMSWVRQNPEKRLEWVASISKGGNTYYPNSVKGRFTISRDNARNILYLQMSSLRSEDTALYYCARGWGDYGWFAYWGQVTLVTVSA
VL: DIKMTQSPSSMYASLGERVTITCKASQDINRYLNWFQQKPGKSPKTLIYRANRLLDGVPSRFSGSGSGQDYSLTISSLDYEDMGIYYCLQYDEFPLTFGDGTKLELK
notes: Mouse PT3 variable regions (VH10/VL7) with human IgG1/kappa constant region; also called mouse PT3, hIgG1
B5: B252 (antibody, human IgG1, V domains shown)
VH: B1 VH with V11L, Q13K, R16G, V37I, A49S, S74A, T77S
VL: DIVMTQTPLSSPVTLGQPASISCKASQDINRYLNWLQQRPGQPPRLLIYRANRLLDGVPDRFSGSGAGTDFTLKISRVEAEDVGVYYCLQYDEFPLTFGQGTKLEIK
notes: Humanized (HFA) PT3 variant, human IgG1/kappa; also called VH93/VL80
B6: B282 (antibody, human IgG1, V domains shown)
VH: B1 VH with V11L, Q13K, R16G, V37I, A49S, S74A, T77S
VL: DIQMTQSPSSLSASVGDRVTITCKASQDINRYLNWFQQKPGKAPKSLIYRANRLLDGVPSRFSGSGSGTDFTLTISSLQPEDFATYYCLQYDEFPLTFGQGTKLEIK
notes: Humanized (HFA) PT3 variant, human IgG1/kappa; also called VH93/VL77
B7: B352 (IgG4 mAb) (antibody, V domains shown)
VH: B1 VH
VL: B6 VL
notes: IgG4 variant of B296 with the same variable regions; also called B296 as hIgG4
B8: B297 (antibody, human IgG1, V domains shown)
VH: B1 VH with V11L, Q13K, R16G, V37I, A49S, S74A, T77S
VL: B6 VL with D56S
notes: Humanized (HFA) PT3 variant, human IgG1/kappa; it is built from VL77 with D56S; also called VH93/VL78
B9: B331 (Fab of B333) (Fab, V domains shown)
VH: B1 VH
VL: B6 VL with Y32W
B10: B332 (Fab of B809) (Fab, V domains shown)
VH: B1 VH with S30T, S52T, D101I
VL: B6 VL

Target: T1, PHF-tau (paired helical filament tau isolated from Alzheimer's disease brain) (human, UniProt P10636-8 2-441, limits assumed, hyper-phosphorylated, aggregated; sites not listed for the preparation)
T1 construct: also called enriched PHF-tau; ePHF-tau
T1 sequence (P10636 other isoform, or with tags, fused parts or gaps limits assumed): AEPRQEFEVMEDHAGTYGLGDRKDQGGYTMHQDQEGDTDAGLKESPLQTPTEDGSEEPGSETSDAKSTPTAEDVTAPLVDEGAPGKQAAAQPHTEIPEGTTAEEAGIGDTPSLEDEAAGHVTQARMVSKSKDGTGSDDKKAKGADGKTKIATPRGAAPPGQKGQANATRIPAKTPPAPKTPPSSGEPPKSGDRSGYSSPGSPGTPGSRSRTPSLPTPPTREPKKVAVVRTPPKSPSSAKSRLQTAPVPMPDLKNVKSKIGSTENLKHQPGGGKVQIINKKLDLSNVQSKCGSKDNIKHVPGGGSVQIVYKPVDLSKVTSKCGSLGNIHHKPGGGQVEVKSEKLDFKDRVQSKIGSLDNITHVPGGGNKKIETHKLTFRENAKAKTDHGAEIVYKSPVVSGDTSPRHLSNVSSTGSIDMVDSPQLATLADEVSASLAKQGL
Assay: SPR ProteOn, PHF-tau capture-coupled via HT7, bivalent model
Experimental: (§1) Affinity matured monoclonal antibodies were tested for binding to PHF-tau isolated from Alzheimer's disease brain.
(§2) A GLC sensor chip was covalently immobilized with a mouse anti-tau antibody, HT7 (ThermoFisher, catalog# MN1000) using the vendor recommended protocol for amine-coupling chemistry (˜5000 response units, RU). The coupling buffer was 10 mM, pH 4.5 sodium acetate. PHF-tau was prepared by 2-times centrifugation at 5000×g in 5° C. for 10 min. […] After capture-coupling, the surface was activated and deactivated to generate a homogenous PHF-tau surface for antibody binding studies. The anti-tau antibodies and their Fabs (prepared in running buffer, 0.024-75 nM at 5-fold dilutions) were injected at 50 μL/min over the PHF-tau surface to measure binding. The association and dissociation profiles were monitored for 4 minutes and 2 hours, respectively. After dissociation, the sensor chip was regenerated using multiple injections of 10 mM Glycine pH 2.0 and the running buffer. A reference surface (without any PHF-tau) was used to monitor non-specific binding of the injected mAbs or Fabs. HT7 antibody was used as a positive control. The binding sensorgrams for mAbs were fit using a bivalent binding model where the apparent affinity or avidity-driven binding (KD) was reported as the ratio of off-rate and on-rate (koff/kₒₙ). A 1:1 Langmuir binding model was used for kinetics analysis of Fabs.

| Binder | Kd [nM] | koff [s⁻¹] | kon [M⁻¹ s⁻¹] |
| --- | --- | --- | --- |
| B1 | 0.0062 | 1.17e-05 | 1.89e+06 |
| B2 | 0.0025 | 6.8e-06 | 2.68e+06 |
| B3 | 0.002 | 1.27e-05 | 6.45e+06 |

Target: T2, tau phospho-peptide of the direct ELISA of Example 11
T2 construct: also called pT217 peptide; pT212/pT217 peptide
Assay: direct ELISA on plate-coated tau phospho-peptide (10 ng/mL), detection with HRPO-labelled anti-Fab antibody
Experimental: (§3) Binding to tau phospho-peptide was analysed by ELISA where peptide (10 ng/mL) was directly coated to the plate overnight. […] After incubation with antibodies, plates were washed and 50 μL per well of HRPO labelled anti-Fab antibody (Jackson Immunoresearch laboratories) (diluted 1:10000 in blocking buffer). After another washing step detection was performed with “One step” TMB (Thermo Scientific) according to the manufacturers' instructions. Plates were analysed in EnVision® 2102 Multilabel Reader (Perkin Elmer, Waltham, Mass., USA). Binding curves were generated using GraphPad Prism7.0 software.

| Binder | EC50 (read off the curve) [nM] |
| --- | --- |
| B1 | ~0.3 |
| B2 | ~0.09 |
| B3 | ~0.06 |

Target: T2, tau phospho-peptide of the direct ELISA …
Assay: direct ELISA, peptide coated
Experimental: as §3

| Binder | EC50 [nM] |
| --- | --- |
| B1 | 0.433 |
| B2 | 0.164 |
| B3 | 0.0917 |

Target: T3, Peptide-2 (human, phosphothreonine 212, phosphothreonine 217 (tau 2N4R numbering); short chain biotin (SCBiot) and dPEG4 at the N-terminus; amide at the C-terminus)
T3 construct: also called pT212/pT217-tau peptide (Peptide-2)
T3 sequence (peptide, as listed by the source): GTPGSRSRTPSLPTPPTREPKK
Assay: SPR ProteOn, mAb captured, peptide as analyte
Experimental: (§4) A subset of HFA-PT3 monoclonal antibody variants, selected based on biophysical characterization and ELISA binding to PHF, were analyzed by Surface Plasmon Resonance (SPR) with a ProteOn XPR36 for binding to the following phosphopeptides: pT212/pT217-tau peptide (Peptide-2, SEQ ID NO: 48) and pT212-tau peptide (Peptide-8, SEQ ID NO: 54). All experiments were performed at 25° C. using PBST, pH 7.4, (Bio-Rad Cat#176-2720) as both running buffer and sample dilution buffer.
(§5) Monoclonal antibody/Peptide binding. […] Anti-human IgG was amine-coupled to the chip surface using EDC/NHS, then washed with ethanolamine. Antibodies were diluted to 2 μg/mL in PBST and injected on the surface for 5 min at 30 μL/min to achieve a maximum density of 900-1000 RU. Peptides were injected as analytes at 60 μL/min for 3 min, followed by 5 min dissociation. Peptide-2 was diluted in PBST to generate a three-fold concentration series (0-30 nM) and measured in duplicate. Single measurements of monoclonal antibody binding to Peptide-8 were recorded over the concentration range 0-100 nM.
(§6) Data were double referenced by subtraction of the interspot response, and the curves generated by the buffer only injection. The chip surface was regenerated with 0.85% phosphoric acid, followed by PBST injection before the next antibody titration injection. Data processing and analysis were performed using instrument software. The data were fit using a simple Langmuir 1:1 binding model.

| Binder | Kd [nM] | koff [s⁻¹] | kon [M⁻¹ s⁻¹] |
| --- | --- | --- | --- |
| B1 | 0.19 | 0.000826 | 5e+06 |
| B4 | 0.0292 | 0.000325 | 9.35e+06 |
| B5 | 0.172 | 0.000901 | 5.75e+06 |
| B6 | 0.445 | 0.00132 | 3.12e+06 |

Target: T1, PHF-tau (paired helical filament tau …)
Assay: SPR ProteOn, PHF-tau on chip

| Binder | fold improvement in on-rate compared to the parent antibody (B296) [fold] | fold difference in affinity against B296 [fold] |
| --- | --- | --- |
| B3 | 3 | – |
| B7 | – | ≤ 2 |

Target: T3, Peptide-2
Assay: SPR ProteOn, mAb captured, peptide as analyte; range of n=2; upper end of n=2 range
Experimental: as §4, §5, §6

| Binder | koff [s⁻¹] | kon [M⁻¹ s⁻¹] |
| --- | --- | --- |
| B1 | 0.000863 | 6.9e+06 |
| B5 | 0.000946 | 7.54e+06 |
| B6 | 0.0014 | 3.89e+06 |

Target: T3, Peptide-2
Assay: SPR ProteOn, mAb captured, peptide as analyte; range of n=2
Experimental: as §4, §5, §6

| Binder | Kd [nM] | koff | kon |
| --- | --- | --- | --- |
| B1 | 0.125 to 0.255 | 0.000788 s⁻¹ | 3.1e+06 M⁻¹ s⁻¹ |
| B4 | 0.0278 to 0.0306 | 0.000242 s⁻¹ and 0.000408 s⁻¹ | 8.7e+06 M⁻¹ s⁻¹ and 1e+07 M⁻¹ s⁻¹ |
| B5 | 0.126 to 0.217 | 0.000856 s⁻¹ | 3.95e+06 M⁻¹ s⁻¹ |
| B6 | 0.36 to 0.529 | 0.00124 s⁻¹ | 2.34e+06 M⁻¹ s⁻¹ |

Target: T1, PHF-tau (paired helical filament tau …)
Assay: SPR ProteOn, PHF-tau capture-coupled via HT7, bivalent model
Remark: another data set of the same source
Experimental: A subset of HFA-PT3 monoclonal antibodies was tested for binding to PHF-tau isolated from Alzheimer's disease brain. All interactions were studied at 25° C. using PBS pH 7.4, supplemented with 3 mM EDTA, and 0.005% Tween 20 as running or system buffer. HT7 (Pierce, catalog #MN1000), a mouse anti-tau antibody, was used as a positive control.
The interaction of anti-tau monoclonal antibodies with PHF-tau was analyzed by ProteOn using a biosensor surface prepared by capture-coupling PHF-tau using HT7 as the capture reagent. PHF-tau was prepared by 2-times centrifugation at 5000×g at 5° C. for 10 min; the supernatant from the second centrifugation was then diluted 1/40 in running buffer. To prepare the chip, HT7 was covalently immobilized to the surface of a GLC (ProteOn) sensor chip using the manufacturer's instructions for amine-coupling chemistry (˜5000 response units (RU)). The coupling buffer was 10 mM sodium acetate, pH 4.5. After HT7 immobilization, PHF-tau was injected and captured (˜300 RU) by HT7. After capture, PHF-tau was covalently immobilized to the sensor chip by activation of the chip using the manufacturer's instructions for amine-coupling chemistry. Remaining reactive sites were blocked by the injection of ethanolamine. After preparation and stabilization of the PHF-tau-modified surface and reference surface (containing no antigen), the anti-tau antibodies were diluted in the running buffer and injected in solution (0.12-75 nM in 5-fold dilutions). The association was monitored for 3 minutes (120 μL injected at 40 μL/min). The dissociation was monitored for 15 minutes. Regeneration of the sensor surface was performed using 10 mM Gly pH 2.0. The data for monoclonal antibodies were fit using a bivalent binding model where the apparent affinity (KD) was reported as the ratio of koff/kₒₙ. A Langmuir 1:1 binding model was used for kinetics analysis of Fabs.

| Binder | Kd [nM] | koff [s⁻¹] | kon [M⁻¹ s⁻¹] |
| --- | --- | --- | --- |
| B1 | 0.027 | 2.93e-05 | 1.07e+06 |
| B8 | 0.042 | 6.03e-05 | 1.44e+06 |
| B5 | 0.032 | 4.28e-05 | 1.32e+06 |
| B6 | 0.061 | 4.08e-05 | 665000 |
| B7 | 0.043 | 1.11e-05 | 255000 |

Target: T4, Peptide-8 (human, phosphothreonine 212 (tau 2N4R numbering); SCBiot and dPEG4 at the N-terminus; amide at the C-terminus)
T4 construct: also called pT212-tau peptide (Peptide-8)
Assay: SPR ProteOn, mAb captured by anti-human Fc, peptide as analyte
Experimental: as §4, §5, §6

| Binder | Kd [nM] | koff [s⁻¹] | kon [M⁻¹ s⁻¹] |
| --- | --- | --- | --- |
| B1 | 26.8 | 0.023 | 856000 |
| B4 | 3.48 | 0.00802 | 2.31e+06 |
| B5 | 32.6 | 0.0242 | 742000 |
| B6 | 86.5 | 0.0382 | 442000 |

Target: T1, PHF-tau (paired helical filament tau …)
Assay: SPR ProteOn, PHF-tau capture-coupled via HT7, 1:1 model
Experimental: as §1, §2

| Binder | Kd [nM] | koff [s⁻¹] | kon [M⁻¹ s⁻¹] |
| --- | --- | --- | --- |
| B9 | 0.031 | 5.31e-05 | 1.72e+06 |
| B10 | 0.0258 | 0.00012 | 4.64e+06 |
